Source: patent publication US7176008B2, “Process for producing activated thrombin-activatable fibrinolysis inhibitor” (Merck & Co., Inc., priority 2002, dated 2007)

Assay: Stability of TAFIa activity
Parameters: species or system human
Description: Pooled human plasma (30–40 mL) was diluted 10-fold with HBE buffer (10 mM HEPES, pH 7.4, 5 mM ε-aminocaproic acid). 5 mM of the reversible inhibitor ε-aminocaproic acid was added to maintain TAFIa stability during the isolation.
Thrombin, thrombomodulin and calcium chloride (final concentrations 5 nM, 2 nM and 5 mM, respectively) were added and the solution was shaken at room temperature for 30 min. The formation of serum was quenched with 10 μM FPRCK and centrifuged at 20,000×g for 30 min at 4° C. Unless otherwise mentioned, all isolation steps were performed at 4° C. The fibrin-free solution was loaded onto a heparin-sepharose column (2.5×3 cm) pre-equilibrated with HBE buffer.
In the presence of 5 mM ε-aminocaproic acid, TAFIa activity in serum reached a maximum at ˜5 min and was preserved >30 min at 37° C. Initial studies for formation of serum by simply adding thrombin and calcium only activated a limited amount of TAFI zymogen (<<0.5%) as determined with western blotting. Dilution of the plasma for serum preparation increased TAFI activation. A 4–5-fold increase in TAFI activation was observed if the plasma were diluted 10–20-fold. […] A maximal increase (30–35-fold) was obtained with 2 nM thrombomodulin, consistent with the fact that thrombomodulin is the cofactor for thrombin-mediated TAFI activation. […]

B1: TAFIa: activated thrombin-activatable fibrinolysis inhibitor, a basic carboxypeptidase purified from serum (protein)
chain: ASASYYEQYHSLNEIYSWIEFITERHPDMLTKIHIGSSFEKYPLYVLKVSGKEQAAKNAIWIDCGIHAREWISPAFCLWFIGHITQFYGIIGQYTNLLRLVDFYVMPVVNVDGYDYSWKKNRMWRKNRSFYANNHCIGTDLNRNFASKHWCEEGASSSSCSETYCGLYPESEPEVKAVASFLRRNINQIKAYISMHSYSQHIVFPYSYTRSKSKDHEELSLVASEAVRAIEKISKNTRYTHGHGSETLYLAPGGGDDWIYDLGIKYSFTIELRDTGTYGFLLPERYIKPTCREAFAAVSKIAWHVIRNV
time TAFIa activity was maintained (4° C., ε-aminocaproic acid present during isolation): more than 3 days
time TAFIa activity in serum was preserved (37° C., in the presence of 5 mM ε-aminocaproic acid): > 30 min
